Reference: patent publication US20240002497A1 (Merck Sharp & Dohme, published 2024)
Changes are numbered by the printed parent chain. Names may count otherwise. Like-named read-outs stand apart in the source and are kept apart here.

B1: F010302368 (VHH)
VHH: EVQLVESGGGVVQPGGSLRLSCAASSRAFIRDVFTGWYRQAPGKQRELVARIYNGGNTNYADSVKGRFTISRDNAKKTVYLQMNSLRPEDTALYYCLFSGTISTGREYRSGDYWGQGTLVTVSS
notes: F010302365 background plus R39Q, A63V
B2: F010302365 (VHH)
VHH: B1 VHH with Q40R, V64A
notes: also called F0103464B09(L11V, T24A, T25S, V40A, E44Q, F62S, S68T, M77T, T79Y, R81Q, S82aN, N82bS, K83R, G88A, V89L, N99S)
B3: F010302333 (VHH)
VHH: B1 VHH with A28Q, Q40R, G55E, V64A
notes: F010302365 background plus A28Q, G54E
B4: F010302366 (VHH)
VHH: B1 VHH with V64A
notes: F010302365 background plus R39Q
B5: F010302341 (VHH)
VHH: B1 VHH with A28Q, G55E, V64A
notes: F010302365 background plus A28Q, R39Q, G54E
B6: F010302357 (VHH)
VHH: B1 VHH with A28Q, G55E
notes: F010302365 background plus A28Q, R39Q, G54E, A63V
B7: F010301641 (VHH)
VHH: EVQLVESGGGVVQPGGSLRLSCAASGSIFNINSMAWYRRAPGKQRELVASSTNGGSTNYADSVKGRFTISRDNAKNTVYLQMNSLRPEDTALYYCNALLQPSIYDISRTYWGQGTLVTVSS
notes: also called F0103275B05(R76_V78insT)(L11V, R76N, T83R, V89L)
B8: F0103275B05 (VHH)
VHH: EVQLVESGGGLVQPGGSLRLSCAASGSIFNINSMAWYRRAPGKQRELVASSTNGGSTNYADSVKGRFTISRDNAKRVYLQMNSLTPEDTAVYYCNALLQPSIYDISRTYWGQGTLVTVSS
notes: also called F0103275B05 (parental)-FLAG-HIS6
B9: F010301636 (VHH)
VHH: B8 VHH with L11V, R76N, T85R, V91L
notes: also called F0103275B05(L11V, R76N, T83R, V89L)
B10: F010301638 (VHH)
VHH: B8 VHH with L11V, R39Q, R76N, T85R, V91L
notes: also called F0103275B05(L11V, R39Q, R76N, T83R, V89L)
B11: F010301635 (VHH)
VHH: B8 VHH with L11V, R39Q, T85R, V91L
notes: also called F0103275B05(L11V, R39Q, T83R, V89L)
B12: F010301637 (VHH)
VHH: B8 VHH with L11V, T85R, V91L
notes: also called F0103275B05(L11V, T83R, V89L)
B13: F010301080 (VHH)
VHH: EVQLVESGGGLVQPGGSLRLSCAASGMLFNANTQGWYRQAPGKQRELVAFIFWGGYVTYNDSVKGRFTISRDNAKRTMYLQMNSLKPEDSAIYYCSLSRYLGQGTLVTVSS
B14: F0103362B08 (VHH)
VHH: EVQLVESGGGLVQAGGSLRLSCAASVRPFSTSAMGWFRQAPEKEREAVAGILWNGIVTYYADSVKGRFTISRDNAKNEVYLQMNKLKPEDTAVYYCALDRDYGGRSFSAYEYEYWGQGTLVTVSS
notes: entry includes the FLAG-HIS6 tag; also called F0103362B08 (parental)-FLAG-HIS6

How the values were obtained:
rhNav1.7α+β1-β2-β3 = molecular target: T1, rhNav1.7α+β1-β2-β3 (rhesus monkey α subunit with human β …); experiment: binding FACS, CHO FlpIn cells
T1 construct: P2A cleaves it into α, β1, β2, β3; also called rhNav1.7-beta1-beta2-beta3

[1] = molecular target: huNav1.7α + β1 on HEK cells (human, UniProt Q15858 1-1988; Q07699 19-218); experiment: binding FACS, HEK cells (HEKa/b1)
[2] = molecular target: T2, huNav1.7α on HEK cells (without β subunits) (human, UniProt Q15858 1-1988); experiment: binding FACS, HEK cells (HEKa)
T2 construct: also called HEKa huNav1.7α

[3] = molecular target: T3, huNav157 chimera 14 + β1-β2-β3 on cells (human (huNav1.7α/huNav1.5α chimera)); experiment: binding FACS, HEK FlpIn cells
T3 construct: Extracellular loops and transmembrane helices of Nav1.7α, intracellular loops of Nav1.5α; P2A linkers are cleaved co-translationally; also called HEK FlpIn Nav157ch14-β1-β2-β3; huNav157 chimera 14-beta1-beta2-beta3

[4] = molecular target: T4, huNav157 chimera 14 on cells (without β subunits) (human (huNav1.7α/huNav1.5α chimera)); experiment: binding FACS, HEK FlpIn cells
T4 construct: also called HEK FlpIn Nav157ch14

[5] = molecular target: T5, huNav1.7α + β1-β2-β3 (human Nav1.7α co-expressed with human Navβ1, Navβ2 and Navβ3 on cells) (human); experiment: binding FACS, CHO FlpIn cells
T5 construct: also called huNav1.7-beta1-beta2-beta3; CHO FlpIn huNav1.7α + β1-β2-β3
In short: (§1)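 Cells in FACS buffer (PBS, 10% FBS, NaN₃) were incubated with purified FLAG3-tagged ISVD for 30 minutes at 4° C. Bound ISVD was detected by flow cytometry with murine anti-Flag, and dead cells were excluded with 1 μg/mL propidium iodide.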

rhNav1.7α + β1-β2-β3 = molecular target: T6, rhNav1.7α + β1-β2-β3 (rhesus monkey); experiment: binding FACS, CHO FlpIn cells
T6 construct: also called rhNav1.7-beta1-beta2-beta3; rhesus Nav1.7α
Description: (§2) Binding of the ISVDs to cell-expressed Nav1.7α was detected via murine anti-Flag (Sigma, catalog #F1804). Briefly, cells were resuspended in FACS buffer (PBS, 10% FBS, NaN₃) and transferred to a 96-well V-bottom plate at 1×10^5 cells/well. Purified FLAG3-tagged ISVD was diluted in FACS buffer and added to the cells for 30 minutes at 4° C. […] Prior to the read-out, the samples were resuspended in 1 μg/mL propidium iodide (Sigma, catalog #P4170) to exclude dead cells. Between each step, the cells were centrifuged for 5 minutes at 200 grams and washed with 100 μL/well FACS buffer.
(§3) Based on the huNav1.7α model (as described above) the following huNav1.7α-rhNav1.7α polymorphisms can be allocated to the extracellular part of DI: N146S, F276V, R277Q, E281V and V331M. The first of the residues is in DI S1-S2 whereas the latter four residues belong to DI S5-S6. FACS binding studies (as described above) were performed to stable CHO FlpIn cell lines expressing different variants of huNav1.7+β1−β2−β3 each including one of the four possible extracellular huNav1.7α-rhNav1.7α polymorphisms in the DI S5-S6 region: F276V, R277Q, E281V and V331M (Table 23 and FIGS. 22A-22F). Individual polymorphisms were each sufficient to abolish the binding of F0103265B04, F0103362B08, F010301080, and F0103262B06 to huNav1.7α, recapitulating the absence of binding on rhNav1.7α. F0103262CO2, F0103275B05 and F0103387G05 are more subtly affected in terms of EC50 or Bmax by some of the polymorphisms. None of the individual DI S5-S6 polymorphisms by themselves appear to have an impact on the binding of the two rhNav1.7α cross-reactive ISVDs F0103387G04 and F0103464B09. In addition, no effect on binding of the two ISVDs was observed (data not shown) for the three extracellular DIV VSD huNav1.7α-rhNav1.7α polymorphisms Q1530P, H1531Y and E1534D (FIG. 22G).

[6] = molecular target: T7, huNav1.7α(F276V) + β1-β2-β3 (human, UniProt Q15858 1-1988; A5A6L6 19-218; O60939 30-215; Q2KI11 23-215); experiment: binding FACS, CHO FlpIn cells
T7 construct: polyprotein as encoded, P2A sites liberate the subunits; the entry already carries F276V; also called huNav1.7(F276V)-beta1-beta2-beta3
Description: as §2, §3

[7] = molecular target: T8, huNav1.7α(V331M) + β1-β2-β3 (human); experiment: binding FACS, CHO FlpIn cells
T8 construct: polyprotein as encoded; the entry already carries V331M; also called huNav1.7(V331M)-beta1-beta2-beta3
Description: as §2, §3

[8] = molecular target: T9, huNav1.7α(E281V) + β1-β2-β3 (human); experiment: binding FACS, CHO FlpIn cells
T9 construct: polyprotein as encoded; the entry already carries E281V; also called huNav1.7(E281V)-beta1-beta2-beta3
Description: as §2, §3

huNav1.7α + β1-β2-β3 [9] = molecular target: T10, huNav1.7α + β1-β2-β3 (human, UniProt Q15858 1-1988; A5A6L6 19-218; O60939 30-215; Q2KI11 23-215); experiment: binding FACS, CHO FlpIn cells
T10 construct: Cell line (CHO FlpIn, HEK FlpIn, transient HEK293T) is named under assay; also called huNav1.7-beta1-beta2-beta3; human Nav1.7α with Navβ1, Navβ2 and Navβ3
Description: as §2, §3

[10] = molecular target: T11, huNav1.7α(R277Q) + β1-β2-β3 (human); experiment: binding FACS, CHO FlpIn cells
T11 construct: polyprotein as encoded; the entry already carries R277Q; also called huNav1.7(R277Q)-beta1-beta2-beta3
Description: as §2, §3

huNav1.7α + β1-β2-β3 [11] = molecular target: T10, huNav1.7α + β1-β2-β3; experiment: competition FACS, HEK FlpIn cells, vs EC30 of CMYC3-F0103265B04
Description: Competition FACS assays were performed with CMYC3-tagged ISVD F0103265B04 or F0103275B05(N93R) affinity maturation variant on a HEK FlpIn huNav1.7α+β1−β2−β3 transgenic cell line. Briefly, cells were resuspended in FACS buffer (PBS, 2% FBS, 0.05% NaN₃) and 1×10⁵ cells/well were transferred to 96-well V-bottom plates. Cells were subsequently resuspended in a 100 μL mixture of purified ISVD (dilution series) and CMYC3-tagged ISVD F0103265B04 (at a concentration equivalent to EC30) followed by incubation for 1.5 hours at 4° C. […] Between each step, the cells were centrifuged for 5 minutes at 200 g and washed with 100 μL/well FACS buffer. Prior to the read-out, the samples were resuspended in 5 nM TOPRO3 (Molecular probes, catalog #T3605) to exclude dead cells. F0103262CO2, F0103262B06, F0103265A11, F0103265B04, F0103275B05, F0103362B08, and F0103387G04 all compete with F0103265B04 for binding to huNav1.7α, in contrast to an irrelevant control ISVD (IRR) (see Table 21 and FIG. 15A, FIG. 15B, FIG. 15C, and FIG. 15D).

huNav1.7α + β1 (HEKa/β1) = molecular target: T12, huNav1.7α + β1 (HEKa/β1) (human, UniProt Q15858 1-1988; Q07699 19-218); experiment: binding FACS, HEKa/β1 cells
T12 construct: also called HEKa/β1 huNav1.7α
In short: as §1

huNav1.7α (HEKa) = molecular target: T13, huNav1.7α (HEKa) (human, UniProt Q15858 1-1988); experiment: binding FACS, HEKa cells
T13 construct: also called HEKa huNav1.7α
In short: as §1

huNav1.7α + β1-β2-β3 [12] = molecular target: T10, huNav1.7α + β1-β2-β3; experiment: binding FACS, CHO FlpIn cells; remark: listed apart in the source
In short: as §1

Row | Binder | binding result (rhNav1.7α+β1-β2-β3) | EC50 [1] [nM] | EC50 [2] [nM] | EC50 [3] [nM] | EC50 [4] [nM] | further results
1 | B1 | no binding |  |  |  |  | 
2 | B2 | no binding |  |  |  |  | 
3 | B3 | no binding |  |  |  |  | 
4 | B4 | no binding |  |  |  |  | 
5 | B5 | no binding |  |  |  |  | 
6 | B6 | no binding |  |  |  |  | 
7 | B7 |  | 230 | 380 | 350 | 310 | 
8 | B8 |  | 39 | 14 | 33 | 12 | EC50 [5]: 66 nM
9 | B9 |  | 30 | 17 | 45 | 14 | 
10 | B10 |  | 32 | 23 | 50 | 18 | 
11 | B11 |  | 31 | 19 | 35 | 16 | 
12 | B12 |  | 30 | 13 | 29 | 11 | EC50 [5]: 56 nM
13 | B13 |  |  |  |  |  | binding result (rhNav1.7α + β1-β2-β3): no binding; EC50 [6]: 2.6 nM; binding result [7]: no binding; EC50 [8]: 2.5 nM; EC50 (huNav1.7α + β1-β2-β3 [9]): 3.4 nM; EC50 [10]: 3.2 nM
14 | B14 |  |  |  |  |  | IC50 (huNav1.7α + β1-β2-β3 [11]): 150 nM; EC50 (huNav1.7α + β1 (HEKa/β1)): 34 nM; EC50 (huNav1.7α (HEKa)): 19 nM; binding result (rhNav1.7α + β1-β2-β3): no binding; EC50 [6]: 42 nM; binding result [7]: no binding; EC50 [8]: 34 nM; EC50 (huNav1.7α + β1-β2-β3 [9]): 43 nM; EC50 [10]: 34 nM; EC50 (huNav1.7α + β1-β2-β3 [12]): 110 nM
